Measured values from the supplement of paper PMC12636428.

The sequences below were run on Saccharomyces cerevisiae (assay: transcriptional activation domain activity (GFP:mCherry ratio, weighted mean of sorted bins, harmonized to initial dataset scale) (arbitrary fluorescence ratio units); higher = stronger transcriptional activation). Conditions: beta-estradiol 1 µM; induction time 4 h.
Outline: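 Each value is an activation activity: the read-weighted mean of bin median fluorescence, averaged across barcodes, then mapped linearly to the initial dataset scale. The tiles, fused to an estradiol-inducible synthetic transcription factor, sat at the yeast URA3 locus in GFP-reporter diploids. Cells spent 4 hours at 30 °C in SC with 1 uM beta-estradiol before sorting into 8 GFP:mCherry bins, and tiles below 50 reads were removed.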

Sequence	transcriptional activation domain activity
GLKRLAMLLRRMLSEKDLIFVFKGLQFLKYWTLSAEEIHTHARYWRRAWKILS	52400
GLLCWIAIRKLGIIGLYVYMDDFFGWDFLDNLIFYRGMRRPRRQVLLLILWEF	50700
GLLKIVVILPVTDVPLPPYRVTPMFLGGMRDLVTHLLRRTSTILTCDRLWYLW	28400
GLLSSCVLIVLVIHHPFLLSDNRHYTFYIWRRVYMFHPIVPYALIPAYLACAW	66700
GLLYILFCYQMNLKTHSLKVIALAEESVRLVHDRQSKRLWLPSITWKKWFRTG	74800
GLMGALGFRMLFGVPCLPFFALHWFLWLVNDYILYCVLVQTNRISSIHFLRAW	41200
GLNLPKISASYLCQYRGSLIGKHFKAIVQLMCFLCYDLLPAPLLNAWLILGRL	70900
GLNPLRTTLMMSLNIIRSLFPAFRGYSQALIVDELQSLIASESFTWSRLLWLM	57900
GLPVVLVLVFFGLPTTGFLVFFPADFLVVFFAFLATFLKVVFKGFFAFLLFFP	74300
GLQGQYNAYSTKHNINVPHGDILVFSLACGQIMYAWLMRPDTLPISYSNWICN	39300
GLRDNVIENRQGKKGAGKAAAAGGAGAAAANTNAATGGKAAKAAKAAAAGGSG	48900
GLRLIYVVNHGAWGKGPPLATIWVYVIVQLNLLPAVLSLVVIAGFVQYLNLKI	77200
GLRNERHFVLFMAYFVLSCWCFCTLGYSYMYLSLDFTQDWPHWPGRTPFILIY	54000
GLTLLCLRRILQLWAGSDQLSELVSYVPVHLRVLAMRDAAVFAPLSRKVLQAL	57700
GLVSLDRLLVNRFGEALLSMGRAPTWSWKRALRAVLLSLVELSARCEFKLGSN	48400
GLVYMIGVYSISGLDRTLQMIHAILHVNFNSLVHKKGITHSCLLWLILIFFGL	48000
GLWLVLLCDAARFPDVVDLVKRKGSRFPASGDLASNESWYLSLWAIKAHILQR	64800

Sequence	transcriptional activation domain activity
GMCVCTYRLHRCSHVKSRGRRFLCLHVLLCDVMMGPLTEWWCPLLRMMVKVYL	47800
GMEGERVKESIRRVQHQGADELYRRSQEKNGKGLRLSQSKTRSRGETPLQLIA	63100
GMFDGVYTGLGVKLPVDKLERYSAAEIAIMSWRVVYLYYWISFCILILCFILF	69900
GMGTAAGKSRARAAAKKTTTKGKESKGKSKSQVGTRRSVRGKRGAREVGDASS	27300
GMHSGDGEFVPFYAPVVVEGPVEAWLLEIEATMRVTLRKLLLGCILALKKAKK	61300
GMIGFDPNVSLEKIYHGRFKDILHKGIQIADRTFTFLGFSHSSLRGHTCWFAA	75600
GMKNIDEGPETENDATENSLTTILNDLEGPLEDFSENFIDDILGSPSAFFDTA	151000
GMKRFLPLCFVMYTLWCTTISITWKLICFLSVTADSTPTIQWRLLCMLFWYLF	33700
GMPESTVEDVGGPSTATVEEGGPREVEATVQGVEEASTSAPVKRGRGRPRKTS	30800
GMVPGYYPKMPYNPMGGDPLLDQAFYGADDFFFPPEGCDNNMLYPQTATSWNV	138000
GNAREMRASSARAAGFRRRGRQASNTRAAGNEREGGEQRARGRGASSARAGGI	43400
GNATAGAGAGQAGEAKGKGKAKAKAKGKEKKGKGKAKGKANGKNNQGAAAGGA	46300
GNAVYMSMDLPDTTFALSKLLNYIEWNRAKLFSFAFFVCVWTYFRHYLNLVIL	46000
GNDEAGAEDTDEDEIEGEGEEGQAPADGNEEEGAGEGESSRAMKKIGKKKAEK	16600
GNEREQREGRREKNGRGEKGKKEERRGRKKRGGGWKRVRRENQARKQGEKGEQ	38100
GNESDDESTEEEKEVKRKKKKKVAKKLPKKKAKKAAVKAKSKKSKKADSSDES	31000
GNGGAGAGAGGANANANANANAGNGAAAAGGNNAATAATGGGKAAKAAAAAAA	22600
